According to IntAct's records for PubMed 17272281:

B1: S-M checkpoint control protein rad4 (Schizosaccharomyces pombe (strain ATCC 38366 / 972)), P32372 (parent)
chain: MGSSKPLKGFVICCTSIDLKQRTEISTKATKLGAAYRSDFTKDVTHLIAGDFDTPKYKFAAKSRPDIKIMSSEWIPVLYESWVQGEDLDDGLLVDKHFLPTLFKCRVCLTNIGQPERSRIENYVLKHGGTFCPDLTRDVTHLIAGTSSGRKYEYALKWKINVVCVEWLWQSIQRNAVLEPQYFQLDMPAEKIGLGAYVRLDPNTTEAKSYSENQKISKNKEKSGQSLAALAEEADLEPVIMKRGKKRDRSILWEELNNGKFEFSSRSEENSVLLDDFTPETVQPLEENELDTELNIENEAKLFKNLTFYLYEFPNTKVSRLHKCLSDNGGQISEFLSSTIDFVVIPHYFPVDELPIFSFPTVNEWWIERCLYYKKIFGIDEHALAKPFFRPSLVPYFNGLSIHLTGFKGEELSHLKKALTILGAVVHEFLGVQRSILLVNTNEPFSMKTRFKIQHATEWNVRVVGVAWLWNIIQSGKFIDQVSPWAIDKKENQEIKKFTNQNNMVFPTSDRDTRLQNSLAQQPIGHSTPHNSPSLLSVKKRQNNHIRSNTLIQLNSNSKDSTIFPRRSVTVPGDKIDTVWKSSVTKPETPTSPQEHVSYIDPDAQREKHKLYAQLTSNVDAIPPANDLQNQENGLLLITESHRKLRRR
partner: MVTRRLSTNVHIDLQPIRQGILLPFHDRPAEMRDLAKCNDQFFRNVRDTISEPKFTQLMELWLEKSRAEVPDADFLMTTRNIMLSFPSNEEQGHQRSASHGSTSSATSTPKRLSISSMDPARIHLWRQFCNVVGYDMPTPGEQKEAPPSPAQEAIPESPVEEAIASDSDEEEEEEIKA

Variants of: B1
Conditions: with yq61_schpo yq61, O94733

Row | Variant | effect of a mutation on the interaction
1 | S171N | decreasing interaction
